Two molecules from patent US20230405119A1 (published 2023) can be followed below.

The target in the assay is IL13ra2-Fc. The experiment in a line: yeast display flow cytometry titration.

B1: RLK (ligand)
chain: GPVPPSTALRRLIEELVNITQNQKAPLCNGSMVWSINLTAGMYCAALESLINVSGCSAIEKTQRMLSGFCPHKVSAGQFSSLHVRDTKILVAQFVKDLLLHLKKLFKEGRFN
For orientation: Kd means the constant that tells how readily two partners part at equilibrium. Take B1: the Kd is 480 nM.

B2: YLK (ligand)
chain: GPVPPSTALRYLIEELVNITQNQKAPLCNGSMVWSINLTAGMYCAALESLINVSGCSAIEKTQRMLSGFCPHKVSAGQFSSLHVRDTKILVAQFVKDLLLHLKKLFKEGRFN
The molecule B2 showed a Kd of 200 nM.
